Key:
Assay in all cases: cell-based or functional assay
[1] = target: human mutant CSF-1R L301S Y969F (human) (UniProt P07333)
[2] = target: human wildtype CSF-1R (full-length) (human) (UniProt P07333)
[3] = target: CSF-1R of cynomolgous monocytes (cynomolgous)

goat polyclonal anti-CSF-1R antibody ab10676 (abcam)
Mutant CSF-1R IC30 (cell viability, CellTiterGlo, 3D culture) [1]: > 20 µg/mL
wtCSF-1R IC30 (cell viability, CellTiterGlo, 3D culture) [2]: 14.2 µg/mL

Anti CSF-1R SC 2-4A5 (Santa Cruz Biotechnology, US) (antibody)
Mutant CSF-1R IC30 (cell viability, CellTiterGlo, 3D culture) [1]: 2.56 µg/mL
Mutant CSF-1R IC50 (cell viability, CellTiterGlo, 3D culture) [1]: 10 µg/mL
% inhibition 10 µg/ml antibody concentration (BeWo cells, CSF-1 induced growth) [2]: 39%
wtCSF-1R IC30 (cell viability, CellTiterGlo, 3D culture) [2]: 16.6 µg/mL
wtCSF-1R IC50 (cell viability, CellTiterGlo, 3D culture) [2]: 10 µg/mL
% survival (cynomolgous monocytes with huCSF-1, 5 µg/ml antibody) [3]: 31%
